B1: Protein unc-45 homolog A (Homo sapiens), Q9H3U1 (parent)
chain: MTVSGPGTPEPRPATPGASSVEQLRKEGNELFKCGDYGGALAAYTQALGLDATPQDQAVLHRNRAACHLKLEDYDKAETEASKAIEKDGGDVKALYRRSQALEKLGRLDQAVLDLQRCVSLEPKNKVFQEALRNIGGQIQEKVRYMSSTDAKVEQMFQILLDPEEKGTEKKQKASQNLVVLAREDAGAEKIFRSNGVQLLQRLLDMGETDLMLAALRTLVGICSEHQSRTVATLSILGTRRVVSILGVESQAVSLAACHLLQVMFDALKEGVKKGFRGKEGAIIVDPARELKVLISNLLDLLTEVGVSGQGRDNALTLLIKAVPRKSLKDPNNSLTLWVIDQGLKKILEVGGSLQDPPGELAVTANSRMSASILLSKLFDDLKCDAERENFHRLCENYIKSWFEGQGLAGKLRAIQTVSCLLQGPCDAGNRALELSGVMESVIALCASEQEEEQLVAVEALIHAAGKAKRASFITANGVSLLKDLYKCSEKDSIRIRALVGLCKLGSAGGTDFSMKQFAEGSTLKLAKQCRKWLCNDQIDAGTRRWAVEGLAYLTFDADVKEEFVEDAAALKALFQLSRLEERSVLFAVASALVNCTNSYDYEEPDPKMVELAKYAKQHVPEQHPKDKPSFVRARVKKLLAAGVVSAMVCMVKTESPVLTSSCRELLSRVFLALVEEVEDRGTVVAQGGGRALIPLALEGTDVGQTKAAQALAKLTITSNPEMTFPGERIYEVVRPLVSLLHLNCSGLQNFEALMALTNLAGISERLRQKILKEKAVPMIEGYMFEEHEMIRRAATECMCNLAMSKEVQDLFEAQGNDRLKLLVLYSGEDDELLQRAAAGGLAMLTSMRPTLCSRIPQVTTHWLEILQALLLSSNQELQHRGAVVVLNMVEASREIASTLMESEMMEILSVLAKGDHSPVTRAAAACLDKAVEYGLIQPNQDGE
B2: Protein FRA10AC1 (Homo sapiens), Q70Z53 (parent)
chain: MHGHGGYDSDFSDDERCGESSKRKKRTVEDDLLLQKPFQKEKHGKVAHKQVAAELLDREEARNRRFHLIAMDAYQRHTKFVNDYILYYGGKKEDFKRLGENDKTDLDVIRENHRFLWNEEDEMDMTWEKRLAKKYYDKLFKEYCIADLSKYKENKFGFRWRVEKEVISGKGQFFCGNKYCDKKEGLKSWEVNFGYIEHGEKRNALVKLRLCQECSIKLNFHHRRKEIKSKKRKDKTKKDCEESSHKKSRLSSAEEASKKKDKGHSSSKKSEDSLLRNSDEEESASESELWKGPLPETDEKSQEEEFDEYFQDLFL
B3: Protein FAM9B (Homo sapiens), Q8IZU0 (parent)
chain: MAAWGKKHAGKDPVRDECEERNRFTETREEDVTDEHGEREPFAETDEHTGANTKKPEDTAEDLTAKRKRMKMDKTCSKTKNKSKHALRKKQLKRQKRDYIHSLKLLNVLEEYITDEQKEEEEEEGEEEELIRIFQEQQKKWQQYRSVRRERLKEMKLLRDQFVKALEDFEDLCDRVFSDEDSELDN
partner: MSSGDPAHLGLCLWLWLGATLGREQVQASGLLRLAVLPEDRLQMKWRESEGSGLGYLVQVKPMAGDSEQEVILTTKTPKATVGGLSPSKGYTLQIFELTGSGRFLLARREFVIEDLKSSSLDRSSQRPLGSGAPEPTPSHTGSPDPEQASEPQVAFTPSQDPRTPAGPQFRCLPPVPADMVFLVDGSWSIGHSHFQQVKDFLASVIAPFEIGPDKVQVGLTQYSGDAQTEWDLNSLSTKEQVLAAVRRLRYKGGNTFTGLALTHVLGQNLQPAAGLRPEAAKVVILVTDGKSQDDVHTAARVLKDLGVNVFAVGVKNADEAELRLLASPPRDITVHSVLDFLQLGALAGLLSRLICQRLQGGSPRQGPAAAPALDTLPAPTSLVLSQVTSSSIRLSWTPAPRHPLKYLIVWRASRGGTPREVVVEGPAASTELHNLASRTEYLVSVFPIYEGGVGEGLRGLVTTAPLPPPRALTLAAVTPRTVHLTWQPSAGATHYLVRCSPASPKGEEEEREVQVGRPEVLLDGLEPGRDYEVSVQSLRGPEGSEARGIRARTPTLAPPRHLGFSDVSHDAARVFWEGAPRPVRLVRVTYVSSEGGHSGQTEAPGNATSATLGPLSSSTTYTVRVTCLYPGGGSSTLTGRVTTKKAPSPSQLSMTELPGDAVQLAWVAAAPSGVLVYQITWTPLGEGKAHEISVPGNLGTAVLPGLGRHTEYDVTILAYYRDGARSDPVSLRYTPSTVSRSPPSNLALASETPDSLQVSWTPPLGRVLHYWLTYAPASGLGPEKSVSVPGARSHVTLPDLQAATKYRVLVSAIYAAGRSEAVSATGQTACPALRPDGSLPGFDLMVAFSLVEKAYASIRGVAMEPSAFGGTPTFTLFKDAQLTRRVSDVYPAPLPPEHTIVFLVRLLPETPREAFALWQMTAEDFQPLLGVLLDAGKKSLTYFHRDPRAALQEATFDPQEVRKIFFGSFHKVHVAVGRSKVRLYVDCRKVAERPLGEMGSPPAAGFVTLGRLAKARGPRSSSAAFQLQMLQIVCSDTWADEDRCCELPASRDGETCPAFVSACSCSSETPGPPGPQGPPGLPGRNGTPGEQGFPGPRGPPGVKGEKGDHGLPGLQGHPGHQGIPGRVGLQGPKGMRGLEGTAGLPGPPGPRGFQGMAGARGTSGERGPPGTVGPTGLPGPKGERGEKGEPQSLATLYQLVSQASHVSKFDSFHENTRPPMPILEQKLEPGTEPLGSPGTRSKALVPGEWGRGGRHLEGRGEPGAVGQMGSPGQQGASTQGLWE
B4: Keratin, type I cuticular Ha3-II (Homo sapiens), Q14525 (parent)
chain: MPYNFCLPSLSCRTSCSSRPCVPPSCHGYTLPGACNIPANVSNCNWFCEGSFNGSEKETMQFLNDRLASYLEKVRQLERDNAELENLIRERSQQQEPLLCPSYQSYFKTIEELQQKILCSKSENARLVVQIDNAKLAADDFRTKYQTEQSLRQLVESDINSLRRILDELTLCRSDLEAQMESLKEELLSLKQNHEQEVNTLRCQLGDRLNVEVDAAPAVDLNQVLNETRNQYEALVETNRREVEQWFATQTEELNKQVVSSSEQLQSYQAEIIELRRTVNALEIELQAQHNLRYSLENTLTESEARYSSQLSQVQSLITNVESQLAEIRSDLERQNQEYQVLLDVRARLECEINTYRSLLESEDCKLPSNPCATTNACEKPIGSCVTNPCGPRSRCGPCNTFGY
B5: Glycine N-methyltransferase (Homo sapiens), Q14749 (parent)
chain: MVDSVYRTRSLGVAAEGLPDQYADGEAARVWQLYIGDTRSRTAEYKAWLLGLLRQHGCQRVLDVACGTGVDSIMLVEEGFSVTSVDASDKMLKYALKERWNRRHEPAFDKWVIEEANWMTLDKDVPQSAEGGFDAVICLGNSFAHLPDCKGDQSEHRLALKNIASMVRAGGLLVIDHRNYDHILSTGCAPPGKNIYYKSDLTKDVTTSVLIVNNKAHMVTLDYTVQVPGAGQDGSPGLSKFRLSYYPHCLASFTELLQAAFGGKCQHSVLGDFKPYKPGQTYIPCYFIHVLKRTD
B6: Syntenin-2 (Homo sapiens), Q9H190 (parent)
chain: MSSLYPSLEDLKVDQAIQAQVRASPKMPALPVQATAISPPPVLYPNLAELENYMGLSLSSQEVQESLLQIPEGDSTAVSGPGPGQMVAPVTGYSLGVRRAEIKPGVREIHLCKDERGKTGLRLRKVDQGLFVQLVQANTPASLVGLRFGDQLLQIDGRDCAGWSSHKAHQVVKKASGDKIVVVVRDRPFQRTVTMHKDSMGHVGFVIKKGKIVSLVKGSSAARNGLLTNHYVCEVDGQNVIGLKDKKIMEILATAGNVVTLTIIPSVIYEHMVKKLPPVLLHHTMDHSIPDA
partner: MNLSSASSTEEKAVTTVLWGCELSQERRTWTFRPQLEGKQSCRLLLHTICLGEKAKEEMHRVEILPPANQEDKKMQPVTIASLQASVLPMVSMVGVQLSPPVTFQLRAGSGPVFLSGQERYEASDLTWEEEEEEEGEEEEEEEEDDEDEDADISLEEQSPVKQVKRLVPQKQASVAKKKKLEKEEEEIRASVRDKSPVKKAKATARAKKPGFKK

Variants of: B1
Conditions: with max_human MAX

Row | effect of a mutation on the interaction | Variant
1 | with no effect | Q251E

Variants of: B2
Conditions: with tri41_human TRIM41, Q8WV44

Row | effect of a mutation on the interaction | Variant
2 | with no effect | S251F

Variants of: B3
Conditions: with coka1_human COL20A1, Q9P218

Row | effect of a mutation on the interaction | Variant
3 | with no effect | R23H

Variants of: B4
Conditions: with k2c4_human KRT4, P19013
k2c4_human KRT4, P19013, sequence (P19013 whole entry): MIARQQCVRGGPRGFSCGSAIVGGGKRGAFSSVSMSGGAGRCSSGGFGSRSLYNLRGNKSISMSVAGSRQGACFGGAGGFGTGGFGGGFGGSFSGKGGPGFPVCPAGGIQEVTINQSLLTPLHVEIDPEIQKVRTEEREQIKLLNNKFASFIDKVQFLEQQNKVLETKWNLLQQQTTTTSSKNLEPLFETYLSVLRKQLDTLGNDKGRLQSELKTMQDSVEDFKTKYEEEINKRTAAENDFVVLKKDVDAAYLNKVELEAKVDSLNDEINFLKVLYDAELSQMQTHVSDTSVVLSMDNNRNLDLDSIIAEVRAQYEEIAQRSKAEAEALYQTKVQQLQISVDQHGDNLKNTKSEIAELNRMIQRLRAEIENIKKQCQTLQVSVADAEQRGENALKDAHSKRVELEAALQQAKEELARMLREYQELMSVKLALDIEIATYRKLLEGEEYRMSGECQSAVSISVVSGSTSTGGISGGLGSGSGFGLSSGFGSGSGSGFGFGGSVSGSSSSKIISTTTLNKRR

Row | Variant | effect of a mutation on the interaction
4 | Q223R | with no effect
5 | I318V | with no effect

More lines, now with the values ahead:

Row | effect of a mutation on the interaction | Variant
6 | disrupting interaction strength | R66H
7 | with no effect | E85K

Variants of: B4
Conditions: with KRT79, Q5XKE5
KRT79, Q5XKE5, sequence (Q5XKE5 whole entry): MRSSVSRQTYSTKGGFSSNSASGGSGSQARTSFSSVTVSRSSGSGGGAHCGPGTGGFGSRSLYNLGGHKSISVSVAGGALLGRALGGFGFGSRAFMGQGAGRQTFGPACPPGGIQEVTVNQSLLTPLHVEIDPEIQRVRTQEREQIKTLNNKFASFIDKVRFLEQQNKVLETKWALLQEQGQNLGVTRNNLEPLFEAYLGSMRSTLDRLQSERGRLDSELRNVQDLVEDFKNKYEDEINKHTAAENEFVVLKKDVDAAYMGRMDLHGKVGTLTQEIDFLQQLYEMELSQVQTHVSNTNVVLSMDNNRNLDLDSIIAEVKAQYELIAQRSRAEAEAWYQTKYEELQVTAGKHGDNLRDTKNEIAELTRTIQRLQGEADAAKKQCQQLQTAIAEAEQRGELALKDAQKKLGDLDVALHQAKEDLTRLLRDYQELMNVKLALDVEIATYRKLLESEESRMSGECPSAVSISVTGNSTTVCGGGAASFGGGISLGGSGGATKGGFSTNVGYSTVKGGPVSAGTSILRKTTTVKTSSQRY

Row | effect of a mutation on the interaction | Variant
8 | with no effect | Y294D

Variants of: B5
Conditions: with ntaq1_human NTAQ1, Q96HA8

Row | effect of a mutation on the interaction | Variant
9 | with no effect | I211T

Variants of: B5
Conditions: with arrc_human ARR3, P36575
arrc_human ARR3, P36575, sequence (P36575 whole entry): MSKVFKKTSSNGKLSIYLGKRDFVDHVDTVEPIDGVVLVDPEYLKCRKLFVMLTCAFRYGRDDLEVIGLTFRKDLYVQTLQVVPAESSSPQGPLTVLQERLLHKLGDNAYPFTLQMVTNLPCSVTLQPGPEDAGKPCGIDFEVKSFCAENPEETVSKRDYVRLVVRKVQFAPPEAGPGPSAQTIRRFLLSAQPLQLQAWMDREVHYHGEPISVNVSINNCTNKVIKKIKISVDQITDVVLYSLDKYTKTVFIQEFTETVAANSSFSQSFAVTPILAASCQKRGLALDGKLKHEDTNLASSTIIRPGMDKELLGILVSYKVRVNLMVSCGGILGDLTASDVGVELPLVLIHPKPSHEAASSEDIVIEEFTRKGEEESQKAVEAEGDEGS

Row | effect of a mutation on the interaction | Variant
10 | disrupting interaction strength | I211T

Variants of: B5
Conditions: with arrb1_human ARRB1, P49407
arrb1_human ARRB1, P49407, sequence (P49407 whole entry): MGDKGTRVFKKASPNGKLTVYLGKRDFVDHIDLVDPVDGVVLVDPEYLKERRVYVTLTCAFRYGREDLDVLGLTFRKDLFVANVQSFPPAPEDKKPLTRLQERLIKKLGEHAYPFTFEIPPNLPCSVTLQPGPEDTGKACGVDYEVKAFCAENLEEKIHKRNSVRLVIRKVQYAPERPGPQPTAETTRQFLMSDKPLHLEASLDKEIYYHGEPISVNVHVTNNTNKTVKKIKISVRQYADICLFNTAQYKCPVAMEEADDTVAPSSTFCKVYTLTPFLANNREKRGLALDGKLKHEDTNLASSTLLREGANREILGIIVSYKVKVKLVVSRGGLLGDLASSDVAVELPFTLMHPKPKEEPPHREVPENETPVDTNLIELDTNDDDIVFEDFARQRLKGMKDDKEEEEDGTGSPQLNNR

Row | effect of a mutation on the interaction | Variant
11 | disrupting interaction strength | I211T

Variants of: B6
Conditions: with npm2_human NPM2, Q86SE8

Row | effect of a mutation on the interaction | Variant
12 | with no effect | V182M
13 | disrupting interaction strength | G242R
14 | disrupting interaction strength | G225R
